Measured values published in PMC7142231, “α1-Microglobulin Binds Illuminated Flavins and Has a Protective Effect Against Sublethal Riboflavin-Induced Damage in Retinal Epithelial Cells” (Frontiers in Physiology, 2020).
Each block holds one molecule with its values, some of them ahead of it.

Experiments:
[1] = molecular target: Cleaved A1M (~22 kDa band formed with illuminated riboflavin or FAD) (human); experiment: SDS-PAGE; 12% SDS-PAGE, samples reduced with 5% β-mercaptoethanol and boiled 1 min (similar results non-reducing); A1M with buffer or 40, 200, 1000 μM riboflavin or FAD, illuminated or in darkness 1 h at RT; Coomassie stain and Western blot
[2] = molecular target: the molecule itself; experiment: as above

stoichiometry N [1]: 2
Molecule: Cleaved A1M (~22 kDa band formed with illuminated riboflavin or FAD) (domain or fragment)

B1: Recombinant human α1-microglobulin (A1M) with an N-terminal His-tag (natural protein, UniProt P02760 20-203, looked up)
chain: GPVPTPPDNIQVQENFNISRIYGKWYNLAIGSTCPWLKKIMDRMTVSTLVLGEGATEAEISMTSTRWRKGVCEETSGAYEKTDTDGKFLYHKSKWNITMESYVVHTNYDEYAIFLTKKFSRHHGPTITAKLYGRAPQLRETLLQDFRVVAQGVGIPEDSIFTMADRGECVPGEQEPEPILIPRV
notes: human α1-microglobulin (A1M), the lipocalin cut from the AMBP precursor; construct as in Kwasek et al., 2007; also called recombinant A1M; not shown: His-tag, N-terminal, kept
stoichiometry N [2]: 2
